# Publication doi:10.1101/2025.05.22.655525 (bioRxiv, 2025)
# Like-named read-outs stand apart in the source and are kept apart here.
# What was measured:
# crystal structure [1] = biological target: the molecule itself; assay: crystal structure
# crystal structure [2] = biological target: the molecule itself; assay: crystal structure; remark: listed apart in the source
Protein,binding result (crystal structure [1]),binding result (crystal structure [2])
"human syntenin-1 PDZ tandem (PDZ1-PDZ2), residues 113-273 (domain or fragment, UniProt O00560 113-273, looked up) REVILCKDQDGKIGLRLKSIDNGIFVQLVQANSPASLVGLRFGDQVLQINGENCAGWSSDKAHKVLKQAFGEKITMTIRDRPFERTITMHKDSTGHVGFIFKNGKITSIVKDSSAARNGLLTEHNICEINGQNVIGLKDSQIADILSTSGTVVTITIMPAF",binds,–
"human syntenin-1 PDZ tandem (PDZ1-PDZ2), residues 113-276 (domain or fragment, UniProt O00560 113-276, looked up) REVILCKDQDGKIGLRLKSIDNGIFVQLVQANSPASLVGLRFGDQVLQINGENCAGWSSDKAHKVLKQAFGEKITMTIRDRPFERTITMHKDSTGHVGFIFKNGKITSIVKDSSAARNGLLTEHNICEINGQNVIGLKDSQIADILSTSGTVVTITIMPAFIFE",–,binds
